Assay: protease stability score; higher = more stable; yeast display proteolysis, trypsin and chymotrypsin;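 note: relative to predicted unfolded state with 0 unfolded-like and 1 meaning tenfold more protease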

Sequence | protease stability score
TEDREIAKKFAEHMIHNYETGDFERILELLDPHTKIHVNGKDMHGREHWLHHLKKWGVDRIESEIRHVEIQGDKVKVDTELHYGDKTIERTVIFEKFDGRWVLREVRVD | 1.12
TEDRESILKLITMEQRNLRTGDEERWHELADPDYRLEFENREIHGREHAIRFMIETTLKLGVDHVELIINDVKWQGDKLHIDGHLRLEIGDKIIEERVIIINLKVNGRWLLRRKHVG | 1.03
TEDSKLITDVLRHFTEAFITGDEHTLKRMADPHVRTEWDGVHLHGWEKFLKFIVTEHRKLGIDHMRVEVDHIESYGDKIHVEGTLVVIINGQEISRHVELVMVKIDGVWLFKSRHFR | 0.706
TEDVRHADEMIERVIESLTTGDEESYKRLLDPDVRVLIGDKRIHGMEAVLEWFRRIDHVQIHDVRVREVEIVNGRADVRMEFDLTHRINGVEHRFKFESEMLLVKIDGQWRLHSDKRI | 1.57
TEDWELMKKAMEDLSRDLSTGDFERINRMLDPHTKLVVGDKEHHGMHAWEIFVKRIDHERSVEVRHFRIIGDKIDIDGTLHAEYGEKRITLKVHIIDSKVNGKWVIEVLSFK | 1.4
TEEDEELKRWFDHFLESMITGDEHQNTELFDPNVLIHINGRQLHGRESAKIFIKEIRYEEIEVTHVRKYGNYVISSGVVRVRINGQESTIKTEVIVLKVNGQWLIRFVRFE | 2.26
TEEDEEVEWVLKVLKETNDTGDEHTFRKLMDPRTKFHINGKDYIGMEAWREQVEKLGFKHIHDIKIEDMRVYNGRIQLHGRVDMVQGDKKIDMHVILIAVKVNGRWLLRFDIVE | 1.38
TEEDEFWERYVQLLRELWITGDEETWKNLADPNTRLHINGVTAHGREEVEHVYKKILEDLGIDVRHIHRIDVQGDKMRIDSRNNIDGQIFRLHIENHFVNGRLQFIRMEVH | 1.25
TEEDEHLYEYLESLFHHQRTGDEDKYERLLDPHARLDINGVDVIGMERVVHQWHEHWRRYKNMRIHFRHYEIKVFNGRAHLRIEGHMEYGDKKSEVELLFIAIKINGRWVVKQVHITVH | 1.82
TEEDEHSRVAIEQTIRTLETGDEKEWERELDPHVRINIGEKHFHGRERAVELWLRLGVKHFRIKEVEHQGNKIIVHGSINVNGVKIEMYSIAEKIDGKWHLTHMHIP | 1.53
TEEDELAHRFWELIRTSFLTGDEESLERLADPNVRLEIGDKELHGREQFSHIMREFVERFKNLRVRVEEERVVGDKAESIEDFHFNGQNLKVLTIVKKINGKWVIKSIVIKIE | 1.7
TEEDELLDKLAEIFSKVLKTGDFDELLSLFDPHTRLEVRQGDKEFHYHGREEVVRFWRHVRNRIDHSQLELHDVKSVNGVANSDSEVILRVNGKEIRIHHILLFVVINGRSKMVVIEFR | 1.68
TEEDELRELAIRLLEESLRTGNEQDLRELFDPNTRIVIGNKDFHGMEHWVRWVFEWRKEHGIKMRIEVKRVDVQGDKIRIDTVLHIDVGDKHHVTRTELHAKKVDGKWFSTELRIN | 2.23
TEEDELYRLLREHLKHVIETGDEELTQKNLDPHVKVELQIGDKKFTLHGRDQFTQWWKELHEKVKNIRFEDRHVQFFDGVAVVHVEINVNGRHIELIVIAEKVNGQWRIKHVEIRFL | 1.53
TEEDEMVHRQTEILEESIVTGDWKTLRNFVDPNMRLEIGDKTVHGWHAMSHILRRIDHINSVELHKVEVYGEKVHVDTIVDGIVDGRRTHLRTHIIALKFNGRWILTSNKIE | 1.03
TEEDEMWHKFMEHYVHNFLTGDPNKAKKLADPDTRFEIDGKDVVGMERIIDEFLKVPGLRSEIKRVTFIGDKIHIDGRMIINGVETKVDIDIHVVNGVIKSIHIRVR | 0.74
TEEDEMWKELSDILLEIHETGDWDRLIRLVDPDVKVNIDGKDLHGWQEVAHTIRVLLEQFKGVKIIIRHVEIQGDKVHIHMEIRQGDKHYEVHLHYIVVNGKIKQMHMHRR | 1
TEEDERAKHWAERWIRLLETGDFEILTELLDPNVRVEIDINGKKIELHGMETISEDLRRRLEELGFKHFHIRDMKSQGDKSRVRGEVEVNGKPVDVHIVLNIVDGKLKTFRFENK | 1.35
TEEDEVTEELARNWVKYFLTGDEEQLHRLMDPNARFHTIVGDKHVHRHGRESIVHWIDHVLRHIRIEEVHIRRVHIWNGRVDINNEEIGRVGDKHYRTEVRIHLRIVDGVIRSVDIDIE | 0.693
TEEDHELRLAHEELHRDLDTGDWESFMRYMDPRARVHYNGREFIGREFAVKFYLDVLNKYKGLTFRIHDIRIFDGVLFVRVKFHFDGQWLHSSEVALKVNGQWHNHHVSFI | 0.611
TEEDHFLKRELEKYIHSILTGDEDSTQHMIDPHARVFWNGVELHGRDAITKIMREWRIRHVRIERFEVQGDKIESHSISHMEINGKKHDHIFRITSEKYDGRWVIRELSIE | 1.51
TEEDHHAKRMTKMWEEALITGNEHLVKEMFDPHARYRQGEWDLVGREEISKFVLTNLEEWRIDHHHTHSLHLQGEKSHVRSRVLGIFDGKRFETHLQVDVEVINGKIHDLTIRIT | 0.678
TEEDHKAFTMVELFLNALTTGDERTLEKLVDPNVRVNIDGRDVHGMSILIRWREHLRFEFREVNNKRSELQGEKLHVDSEVDRHIRIGDKEDREHIRIHFHLLKINGRWFIEEVRML | 1.36
TEEDKLIEKAWRLFLHILHTGDWEEFHRLADPHMREDVNGVNLIGREDVLRHFIRLIEELGVKHSHVKDFRIHIFNGVIHTIMDVRTEYGDKSVDVRIHLEIEKIDGRWFLRTARIRLT | 1.51
TEEDKMEHDYAKLFMFLERTGDETLFEKLVDPDVKHIFDGVHLHGREEVASFLHHLLREWRIHHIDLKRVDVVNGKIEIDGRRNGDFDGKRYETHFTIHVFLYDGRIKWFEIRIR | 1.46

Sequence | protease stability score
TEEDRETEKFLRILQEVHRTGDWRRFDEFLDPNVRIHIGDKEYHGREEFTRFFKEMGIDHHEVKHYRLVDGQLDLDVTERFNGVTVKTKLITHKFDGRWLITEIRVK | 1.19
TEEDRFAHEFVRKWIENFLTGNEEKLHELADPNMKIDVGDKHLHGMEEWTRFLRDLGWRTEIRLRDIEVQGNKAFIRGEVHISINGRTDKTETRIILHVVNGRLKEVYVHHQ | 1.53
TEEDRLVDKITKELLTALTTGDEEIFLELLDPNARVEYNGKEMHGREFYRKIFEEEEKKIKNLRVEIHDYDAQGDKIHVDQRRHFNGRTYDYRLHYLVVNGKVKSVFVRIL | 0.831
TEEEDEASRLMEEFLKHHETGDWEELKKMADPDARYHETVNGKRIERHGRDDLITWLRKFLEKFKNMRLHIDEMRLIGNKNILHGTLRIGDKDIESRIILIIIDGRIKEIEIIIK | 1
TEEEDLIRRQIHELRETLQTGDEHLLNWLLDPHARMEIDGQEVWGREEIAKFLHRFKNITVLFNDMIVQGDKVDIDGQIEFNGRRRRARLISDKVDGQWIDHDIIII | 1.3
TEEEDRLREIAELIHKFLTTGDWEKIFRMLDPHVRVEIHVNGRDIIIHGWKNVHRLLEYELEELRFHQSDVHELRVQGDKAHSITEWDGVIDGRRQNLHVNVHFVTVDGRIRSIKFEFR | 1.57
TEEEEAAKRVFRLLLENAKTGDEDHLRELIDPNVRIHVDGRTLIGMEQFKRFWSEMRVHHWDQKSVDFVNGRVHSDTIINSHVDGQTIHIDVRIIITKIDGQWVVESFSVS | 1.17
TEEEEAKHLAQRIIEEDLRTGDWSRELRQIDPDVKTRVGDKTFHGMSALHYLLKQIDHPKSFTTHHIEVQGDKIKIDGELEGNINGVRTKIHTIFIVRKVNGRWLVETIIFE | 1.53
TEEEEDARRATEELVRIINTGDEDRWERLMDPDVRVEVGDKEIHGRETLSEIFKFKHKHLRIKMDIRDMRLIDGKVWVDIVIDVEFDGRRHIHKTTIVLIKVNGRWRLDEVRLH | 1.77
TEEEEDLKEVLRVELETWHTGNWDEMRRLLDPHARLIFDGQTFHGRELAVKFFQELLTRFDVLHIIPQSVSVYNGRVEIHEEMHEVVDGQTIRRTYHVRSSKINGRWSVEVLVIQ | 0.443
TEEEEEARRALEEWIHNLMTGDEKRELELADPHVRILIDINGREIHMHGWEQFERWVHEEMRRLGLDRFEVRLEHIEIQGDKSVLDGRINYNGVDERNNIILVVVDGKLRQIRIHVI | 1.95
TEEEEEFHEILEHFLTQLHTGDWEEIIKNLDPNVLFHFNGVLFHGREEVSRFLVEWFDKIKGMRIHIHELRIVGDKATIDTRLDVGEKTHRVIIHIRKINGRWLITEIRIE | 2.02
TEEEEEFHRMFELEVRAWRTGDEETIRRLFDPHARIDFNGRDVIGRDEFIKRFQELGVEVHDLKIHNFRIVGDKVHWDIRLDGTFNGKRTKLEIHLYAEKYDGQWFNKTEYYI | 1.36
TEEEEEFKRTSHEIFYALHTGNWEILEKMFDPHVRTHINGKDVHGREEATRVMELWIEELGVKHIHIKSEHHDIQGEFVRIHFHIISRVGDKFIEIEIEMEIRKINGRWRFTSIRLDRR | 1.42
TEEEEELHKILERMIKHLVTGDEEAILKLADPDVRVHRIIDGRELDIVGRENLRHWLHELLRQLGVDHIDVKSVTLQGDKIHMTGTMKWNGKTEETRIIFEVVNGRLKRMEFHEI | 0.982
TEEEEELRRIEHLTIELIETGDEDTLKRLADPNARLNIEFNGVHIHSHGREEMARLLHEWYRTMGIKHEELKRSEIQGDKVILHTELRIGDKTVSTIIITLVINGRIKWIRIIIK | 1.36
TEEEEEMRELTELWLNILHTGDEDRFRELADPRVRLHINGRHNHGREIFMEFFDRSLKILGADHRTIHRIRFIGDKIDIKGREYINGQETRATLHVIIVNGRIKFEEWRFD | 0.989
TEEEEEMRKMSELYIRAILTGDEDEYTKLADPDDRVNFNGRKLVGRKEVKEWLRKLRDKFKNITLHHFEIKELRVYNGRIRMIAESEVNIGDKVWRFHLHFIFEKFDGVWVLTEESTE | 1.64
TEEEEENMDFLHKWLERTRTGDEHEIKKLADPDVRLRVGNKEIHGRDLFARWAKEIRITHLDEKRFHIYNGKVDFDGINHVTVNGVDETRKVIFHLVKVDGVWRFKEVDIR | 0.98
TEEEEESKKAVEDLLHTIKTGNEEHMDRLLDPNVRLHVGDKDFVGREAFRHFWHEEWERFKNIKVELEDVKIFNGRVQIVLRIDIGDKHHRLHVYADKINGRWFIKRVEIE | 2
TEEEEHALTLMKEWVHNHETGNEDHLSHLMDPNYRWVQGDWHLHGMEDFSRELNKTLDKMGMTEHLRLKDFKVQGNFVEVIGTQHLHINGRTIKIDSTLKLNVINGRIHEVRYTLH | 0.77
TEEEEHASRIARLWLDMLLTGDWHTLDRLLDPHVRLEVNGQERIGREQIIKFEEERKRQLRINDVRTRHIHSQGDKLHIVTEADGEIDGKRTNVDTRIQIKVVDGVVEEVKFDIK | 0.736
TEEEEHIRRLAEELMHNIRTGDEDTLVDLFDPDTKLHVHQGDKEIVFHGMEEIFDWWEKLLSEIRIEIRIRSIKYIGDKAHVHTEVIWRFNGREHRIESEIEFVLINGKVERIHISFI | 2.27
TEEEEHLHTLASKDLKAFMTGDWETHKKLADPHVRFELVVGEWRLILHGRERFIEFLIEVLEKMGVDHFHLQHVEVIGNFVRLNIKIEVGDKTHDTRIDLEYINGVIHDVRVEFK | 2.02
TEEEEHSKTLAEELLRVLLTGDEDTLHELFDPHARFHYGDKLHIGREEVTKALREVYERIDHYEVKHLEIQGDKVHVDGEHHIGDKSIRVRVHAWIVNGVVKQYHEHSL | 1.02

Reference: the NTF2 design screens of Basanta et al. (2020)
